Measured values as given in the supplement of paper PMC5998384.

What was measured:
HeLa Kyoto [1] = assay: solubility in G1/S (NP-40 vs SDS abundance) (log2 ratio); higher = more soluble; conditions: cell cycle stage: G1/S
HeLa Kyoto [2] = assay: solubility change mitosis vs G1/S (difference of NP-40 vs SDS log2 ratios) (log2 ratio difference); higher = more soluble in mitosis
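For solubility change mitosis vs G1/S (difference of NP-40 vs SDS log2 ratios) in this document: synchronized HeLa Kyoto cells (double thymidine block for G1/S, nocodazole release for mitosis), protein amounts in NP-40 versus SDS lysates quantified by mass spectrometry, three biological replicates.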
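For solubility in G1/S (NP-40 vs SDS abundance) in this document: HeLa Kyoto cells arrested at G1/S by double thymidine block, proteins quantified by TMT10plex mass spectrometry in mild NP-40 versus SDS extracts, three biological replicates.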

| Substance | solubility in G1/S (log2) (HeLa Kyoto [1]) | solubility change mitosis (log2) (HeLa Kyoto [2]) |
| --- | --- | --- |
| MDSTKEKCDSYKDDLLLRMGLNDNKAGMEGLDKEKINKIIMEATKGSRFYGNELKKEKQVNQRIENMMQQKAQITSQQLRKAQLQVDRFAMELEQSRNLSNTIVHIDMDAFYAAVEMRDNPELKDKPIAVGSMSMLSTSNYHARRFGVRAAMPGFIAKRLCPQLIIVPPNFDKYRAVSKEVKEILADYDPNFMAMSLDEAYLNITKHLEERQNWPEDKRRYFIKMGSSVENDNPGKEVNKLSEHERSISPLLFEESPSDVQPPGDPFQVNFEEQNNPQILQNSVVFGTSAQEVVKEIRFRIEQKTTLTASAGIAPNTMLAKVCSDKNKPNGQYQILPNRQAVMDFIKDLPIRKVSGIGKVTEKMLKALGIITCTELYQQRALLSLLFSETSWHYFLHISLGLGSTHLTRDGERKSMSVERTFSEINKAEEQYSLCQELCSELAQDLQKERLKGRTVTIKLKNVNFEVKTRASTVSSVVSTAEEIFAIAKELLKTEIDADFPHPLRLRLMGVRISSFPNEEDRKHQQRSIIGFLQAGNQALSATECTLEKTDKDKFVKPLEMSHKKSFFDKKRSERKWSHQDTFKCEAVNKQSFQTSQPFQVLKKKMNENLEISENSDDCQILTCPVCFRAQGCISLEALNKHVDECLDGPSISENFKMFSCSHVSATKVNKKENVPASSLCEKQDYEAHPKIKEISSVDCIALVDTIDNSSKAESIDALSNKHSKEECSSLPSKSFNIEHCHQNSSSTVSLENEDVGSFRQEYRQPYLCEVKTGQALVCPVCNVEQKTSDLTLFNVHVDVCLNKSFIQELRKDKFNPVNQPKESSRSTGSSSGVQKAVTRTKRPGLMTKYSTSKKIKPNNPKHTLDIFFK [POLK] | -0.534 | 0.335 |
| ELL2 | 0.0976 | 0.0626 |
| MSLALRSELVVDKTKRKKRRELSEEQKQEIKDAFELFDTDKDEAIDYHELKVAMRALGFDVKKADVLKILKDYDREATGKITFEDFNEVVTDWILERDPHEEILKAFKLFDDDDSGKISLRNLRRVARELGENMSDEELRAMIEEFDKDGDGEINQEEFIAIMTGDI [CETN3] | 0.133 | 0.0873 |
| MVRDSMAAAFRPSNRVLLQALQILVYPGVGGSGSVSCRCPLGAKRYLLTDNVVKLKEFQQKKVAVACNLSGTKETYFRNLKKKLTQNKLILKGELITLLHLCESRDHVELAKNVIYRYHAENKNFTLGEYKFGPLFVRLCYELDLEESAVELMKDQHLRGFFSDSTSFNILMDMLFIKGKYKSALQVLIEMKNQDVKFTKDTYVLAFAICYKLNSPESFKICTTLREEALLKGEILSRRASCFAVALALNQNEMAKAVSIFSQIMNPESIACINLNIIIHIQSNMLENLIKTLKNAAEGNLSKFVKRHVFSEEVLAKVREKVKDVPALVAKFDEIYGTLHITGQVTTDSLDAVLCHTPRDRKSHTLLLNKRMVSRRTFQPLSQSLLAE [PTCD2] | -0.0152 | 0.106 |
| MEVEAAEARSPAPGYKRSGRRYKCLSCTKTFPNAPRAARHAATHGPADCSEEVAEVKPKPETEAKAEEASGEKVSGSAAKPRPYACPLCPKAYKTAPELRSHGRSHTGEKPFPCPECGRRFMQPVCLRVHLASHAGELPFRCAHCPKAYGALSKLKIHQRGHTGERPYACADCGKSFADPSVFRKHRRTHAGLRPYSCERCGKAYAELKDLRNHERSHTGERPFLCSECGKSFSRSSSLTCHQRIHAAQKPYRCPACGKGFTQLSSYQSHERTHSGEKPFLCPRCGRMFSDPSSFRRHQRAHEGVKPYHCEKCGKDFRQPADLAMHRRVHTGDRPFKCLQCDKTFVASWDLKRHALVHSGQRPFRCEECGRAFAERASLTKHSRVHSGERPFHCNACGKSFVVSSSLRKHERTHRSSEAAGVPPAQELVVGLALPVGVAGESSAAPAAGAGLGDPPAGLLGLPPESGGVMATQWQVVGMTVEHVECQDAGVREAPGPLEGAGEAGGEEADEKPPQFVCRECKETFSTMTLLRRHERSHPELRPFPCTQCGKSFSDRAGLRKHSRTHSSVRPYTCPHCPKAFLSASDLRKHERTHPVPMGTPTPLEPLVALLGMPEEGPA [ZNF668] | -0.985 | 0.453 |
| MHSSNPKVRSSPSGNTQSSPKSKQEVMVRPPTVMSPSGNPQLDSKFSNQGKQGGSASQSQPSPCDSKSGGHTPKALPGPGGSMGLKNGAGNGAKGKGKRERSISADSFDQRDPGTPNDDSDIKECNSADHIKSQDSQHTPHSMTPSNATAPRSSTPSHGQTTATEPTPAQKTPAKVVYVFSTEMANKAAEAVLKGQVETIVSFHIQNISNNKTERSTAPLNTQISALRNDPKPLPQQPPAPANQDQNSSQNTRLQPTPPIPAPAPKPAAPPRPLDRESPGVENKLIPSVGSPASSTPLPPDGTGPNSTPNNRAVTPVSQGSNSSSADPKAPPPPPVSSGEPPTLGENPDGLSQEQLEHRERSLQTLRDIQRMLFPDEKEFTGAQSGGPQQNPGVLDGPQKKPEGPIQAMMAQSQSLGKGPGPRTDVGAPFGPQGHRDVPFSPDEMVPPSMNSQSGTIGPDHLDHMTPEQIAWLKLQQEFYEEKRRKQEQVVVQQCSLQDMMVHQHGPRGVVRGPPPPYQMTPSEGWAPGGTEPFSDGINMPHSLPPRGMAPHPNMPGSQMRLPGFAGMINSEMEGPNVPNPASRPGLSGVSWPDDVPKIPDGRNFPPGQGIFSGPGRGERFPNPQGLSEEMFQQQLAEKQLGLPPGMAMEGIRPSMEMNRMIPGSQRHMEPGNNPIFPRIPVEGPLSPSRGDFPKGIPPQMGPGRELEFGMVPSGMKGDVNLNVNMGSNSQMIPQKMREAGAGPEEMLKLRPGGSDMLPAQQKMVPLPFGEHPQQEYGMGPRPFLPMSQGPGSNSGLRNLREPIGPDQRTNSRLSHMPPLPLNPSSNPTSLNTAPPVQRGLGRKPLDISVAGSQVHSPGINPLKSPTMHQVQSPMLGSPSGNLKSPQTPSQLAGMLAGPAAAASIKSPPVLGSAAASPVHLKSPSLPAPSPGWTSSPKPPLQSPGIPPNHKAPLTMASPAMLGNVESGGPPPPTASQPASVNIPGSLPSSTPYTMPPEPTLSQNPLSIMMSRMSKFAMPSSTPLYHDAIKTVASSDDDSPPARSPNLPSMNNMPGMGINTQNPRISGPNPVVPMPTLSPMGMTQPLSHSNQMPSPNAVGPNIPPHGVPMGPGLMSHNPIMGHGSQEPPMVPQGRMGFPQGFPPVQSPPQQVPFPHNGPSGGQGSFPGGMGFPGEGPLGRPSNLPQSSADAALCKPGGPGGPDSFTVLGNSMPSVFTDPDLQEVIRPGATGIPEFDLSRIIPSEKPSQTLQYFPRGEVPGRKQPQGPGPGFSHMQGMMGEQAPRMGLALPGMGGPGPVGTPDIPLGTAPSMPGHNPMRPPAFLQQGMMGPHHRMMSPAQSTMPGQPTLMSNPAAAVGMIPGKDRGPAGLYTHPGPVGSPGMMMSMQGMMGPQQNIMIPPQMRPRGMAADVGMGGFSQGPGNPGNMMF [BCL9] | 0.308 | 0.0803 |
| MSVTEEDLCHHMKVVVRVRPENTKEKAAGFHKVVHVVDKHILVFDPKQEEVSFFHGKKTTNQNVIKKQNKDLKFVFDAVFDETSTQSEVFEHTTKPILRSFLNGYNCTVLAYGATGAGKTHTMLGSADEPGVMYLTMLHLYKCMDEIKEEKICSTAVSYLEVYNEQIRDLLVNSGPLAVREDTQKGVVVHGLTLHQPKSSEEILHLLDNGNKNRTQHPTDMNATSSRSHAVFQIYLRQQDKTASINQNVRIAKMSLIDLAGSERASTSGAKGTRFVEGTNINRSLLALGNVINALADSKRKNQHIPYRNSKLTRLLKDSLGGNCQTIMIAAVSPSSVFYDDTYNTLKYANRAKDIKSSLKSNVLNVNNHITQYVKICNEQKAEILLLKEKLKAYEEQKAFTNENDQAKLMISNPQEKEIERFQEILNCLFQNREEIRQEYLKLEMLLKENELKSFYQQQCHKQIEMMCSEDKVEKATGKRDHRLAMLKTRRSYLEKRREEELKQFDENTNWLHRVEKEMGLLSQNGHIPKELKKDLHCHHLHLQNKDLKAQIRHMMDLACLQEQQHRQTEAVLNALLPTLRKQYCTLKEAGLSNAAFESDFKEIEHLVERKKVVVWADQTAEQPKQNDLPGISVLMTFPQLGPVQPIPCCSSSGGTNLVKIPTEKRTRRKLMPSPLKGQHTLKSPPSQSVQLNDSLSKELQPIVYTPEDCRKAFQNPSTVTLMKPSSFTTSFQAISSNINSDNCLKMLCEVAIPHNRRKECGQEDLDSTFTICEDIKSSKCKLPEQESLPNDNKDILQRLDPSSFSTKHSMPVPSMVPSYMAMTTAAKRKRKLTSSTSNSSLTADVNSGFAKRVRQDNSSEKHLQENKPTMEHKRNICKINPSMVRKFGRNISKGNLR [KIF18A] | -0.624 | -0.237 |
| MAAEEVLQTVDHYKTEIERLTKELTETTHEKIQAAEYGLVVLEEKLTLKQQYDELEAEYDSLKQELEQLKEAFGQSFSIHRKVAEDGETREETLLQESASKEAYYLGKILEMQNELKQSRAVVTNVQAENERLTAVVQDLKENNEMVELQRIRMKDEIREYKFREARLLQDYTELEEENITLQKLVSTLKQNQVEYEGLKHEIKRFEEETVLLNSQLEDAIRLKEIAEHQLEEALETLKNEREQKNNLRKELSQYISLNDNHISISVDGLKFAEDGSEPNNDDKMNGHIHGPLVKLNGDYRTPTLRKGESLNPVSDLFSELNISEIQKLKQQLMQVEREKAILLANLQESQTQLEHTKGALTEQHERVHRLTEHVNAMRGLQSSKELKAELDGEKGRDSGEEAHDYEVDINGLEILECKYRVAVTEVIDLKAEIKALKEKYNKSVENYTDEKAKYESKIQMYDEQVTSLEKTTKESGEKMAHMEKELQKMTSIANENHSTLNTAQDELVTFSEELAQLYHHVCLCNNETPNRVMLDYYRQSRVTRSGSLKGPDDPRGLLSPRLARRGVSSPVETRTSSEPVAKESTEASKEPSPTKTPTISPVITAPPSSPVLDTSDIRKEPMNIYNLNAIIRDQIKHLQKAVDRSLQLSRQRAAARELAPMIDKDKEALMEEILKLKSLLSTKREQIATLRAVLKANKQTAEVALANLKNKYENEKAMVTETMTKLRNELKALKEDAATFSSLRAMFATRCDEYVTQLDEMQRQLAAAEDEKKTLNTLLRMAIQQKLALTQRLEDLEFDHEQSRRSKGKLGKSKIGSPKVSGEASVTVPTIDTYLLHSQGPQTPNIRVSSGTQRKRQFSPSLCDQSRPRTSGASYLQNLLRVPPDPTSTESFLLKGPPSMSEFIQGHRLSKEKRLTVAPPDCQQPAASVPPQCSQLAGRQDCPTVSPDTALPEEQPHSSSQCAPLHCLSKPPHP [BICD1] | 0.652 | -0.259 |
| ALAS1 | 0.132 | 0.00951 |
| MAPEENAGTELLLQSFERRFLAARTLRSFPWQSLEAKLRDSSDSELLRDILHKTVKHPVCVKHPPSVKYARCFLSELIKKHEAVHTEPLDELYEALAETLMAKESTQGHRSYLLPSGGSVTLSESTAIISYGTTGLVTWDAALYLAEWAIENPAVFTNRTVLELGSGAGLTGLAICKMCRPRAYIFSDCHSRVLEQLRGNVLLNGLSLEADITAKLDSPRVTVAQLDWDVATVHQLSAFQPDVVIAADVLYCPEAIMSLVGVLRRLAACREHQRAPEVYVAFTVRNPETCQLFTTELGRAGIRWEVEPRHEQKLFPYEEHLEMAMLNLTL [EEF2KMT] | 0.0707 | -0.00202 |
| MLRLLASGCARGPGPGVGARPAAGLFHPGRRQSRQASDAPRNQPPSPEFVARPVGVCSMMRLPVQTSPEGLDAAFIGVPLDTGTSNRPGARFGPRRIREESVMLGTVNPSTGALPFQSLMVADLGDVNVNLYNLQDSCRRIQEAYEKIVAAGCIPLTLGGDHTITYPILQAMAKKHGPVGLLHVDAHTDTTDKALGEKLYHGAPFRRCVDEGLLDCKRVVQIGIRGSSTTLDPYRYNRSQGFRVVLAEDCWMKSLVPLMGEVRQQMGGKPIYISFDIDALDPAYAPGTGTPEIAGLTPSQALEIIRGCQGLNVMGCDLVEVSPPYDLSGNTALLAANLLFEMLCALPKVTTV [AGMAT] | 0.243 | 0.0673 |
